Results reported in US20260217863A1 (UIF UNIVERSITY INDUSTRY FOUNDATION YONSEI UNIVERSITY, published 2026).

Legend:
[1] = molecular target: T1, Ribonuclease A (Type II-A) from bovine pancreas (bovine, UniProt P61823 27-150); test: cell-based or functional assay
T1 sequence (looked up): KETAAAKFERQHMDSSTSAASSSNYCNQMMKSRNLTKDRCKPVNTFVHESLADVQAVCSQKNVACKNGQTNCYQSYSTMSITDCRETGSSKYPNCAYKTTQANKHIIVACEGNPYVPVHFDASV

[2] = molecular target: RNase A contained in the actual serum sample; test: cell-based or functional assay
[3] = molecular target: RNase A contained in the pig swab actual sample (pig (sample: pig swab)); test: cell-based or functional assay
[4] = molecular target: RNase A contained in the saliva swab actual sample; test: cell-based or functional assay
[5] = molecular target: T1, Ribonuclease A (Type II-A) from bovine …; test: SPR biosensor, RNase A immobilized on the Au chip, peptide in solution
Protocol: (§1) Binding analysis of the expressed FV antibody and synthesized peptides against RNase A was performed using an SPR (Surface Plasmon Resonance) biosensor from I-Cluebio (Seongnam, Korea). RNase A was immobilized on the gold surface of the SPR chip used in the SPR biosensor to conduct the binding analysis. For the manufacture of the SPR chip, a 2 nm thick titanium adhesive layer and a 48 nm thick gold surface were consecutively sputter-coated onto BK-7 glass (1×1 cm²). […] To analyze the binding of the expressed Fv antibody to RNase A, Fv antibodies in the concentration range of 0.37-100 nM were reacted using PBS buffer as the […] through association (10 minutes), equilibrium (5 minutes), and dissociation (10 minutes) steps. The washing buffer and total SPR measurements were performed at a flow rate of 15 μL/min. For the binding analysis of the synthesized peptides against RNase A, peptides in the concentration range of 0.37-100 nM were reacted using PBS buffer as the washing buffer through association (10 minutes), equilibrium (5 minutes), and dissociation (10 minutes) steps, and total SPR measurements were conducted at a flow rate of 15 μL/min.
Using the screened CDR3 amino acid sequences, the CDR3 regions of the screened Fv antibodies were synthesized as peptides, and the amino acid sequences were determined from the nucleotide sequences of the CDR3 regions as summarized in Table 7. These synthetic peptides (Peptide-1, Peptide-2, Peptide-3) and Fv antibodies (Fv-1, Fv-2, Fv-3) were identical to the amino acid sequences of the CDR3 regions of the screened clones. The expression of the Fv antibodies was confirmed using SDS-PAGE, and the molecular weight of the Fv antibodies was estimated to be 69.2 kDa as shown in FIG. 9. The affinity constant (KD) of the synthetic peptides and the expressed Fv antibodies against RNase A was estimated using an SPR biosensor.

[6] = molecular target: T1, Ribonuclease A (Type II-A) from bovine …; test: SPR, RNase A immobilized on the Au chip, fit of SPR signal against peptide concentration. The label is unnamed: it is printed in the light grey of the Peptide-1 marker at the top end of that curve, and agrees with the 1.3 ± 0.1 µM of the text.
Protocol: RNase A was immobilized on the gold surface of the SPR chip used in the SPR biosensor to conduct the binding analysis. For the manufacture of the SPR chip, a 2 nm thick titanium adhesive layer and a 48 nm thick gold surface were consecutively sputter-coated onto BK-7 glass (1×1 cm²). […] To analyze the binding of the expressed Fv antibody to RNase A, Fv antibodies in the concentration range of 0.37-100 nM were reacted using PBS buffer as the […] through association (10 minutes), equilibrium (5 minutes), and dissociation (10 minutes) steps. The washing buffer and total SPR measurements were performed at a flow rate of 15 μL/min. […]
Using the screened CDR3 amino acid sequences, the CDR3 regions of the screened Fv antibodies were synthesized as peptides, and the amino acid sequences were determined from the nucleotide sequences of the CDR3 regions as summarized in Table 7. […] The SPR signal was plotted according to the concentration of the synthetic peptides, and the affinity constants (KD) of these synthetic peptides were calculated through a fitting process.

[7] = molecular target: T1, Ribonuclease A (Type II-A) from bovine …; test: SPR biosensor, RNase A immobilized on the Au chip, expressed Fv antibody in solution
Protocol: as §1
Using the screened CDR3 amino acid sequences, the CDR3 regions of the screened Fv antibodies were synthesized as peptides, and the amino acid sequences were determined from the nucleotide sequences of the CDR3 regions as summarized in Table 2. These synthetic peptides (Peptide-1, Peptide-2, Peptide-3) and Fv antibodies (Fv-1, Fv-2, Fv-3) were identical to the amino acid sequences of the CDR3 regions of the screened clones. The expression of the Fv antibodies was confirmed using SDS-PAGE, and the molecular weight of the Fv antibodies was estimated to be 69.2 kDa as shown in FIG. 9. The affinity constants (KD) of these synthetic peptides and the expressed Fv antibodies against RNase A were estimated using an SPR biosensor.

[8] = molecular target: T1, Ribonuclease A (Type II-A) from bovine …; test: cell-based or functional assay; remark: listed apart in the source

| Binder | IC50, cCMP assay (hydrolysis of 2',3'-cyclic CMP, absorbance at 286 nM) [1] | IC50 by linear regression, RNA probe assay [1] | IC50 for the inhibition of RNase A activity, HeLa total RNA cleavage, agarose gel image [1] | peptide concentration at which the RNase inhibition activity is over 50%, HeLa total RNA cleavage, agarose gel [1] | relative inhibition level after 60 minutes, RNA probe assay (fluorophore and quencher), peptide at 1 µM [1] | decrease of RNase A activity after approximately 27 minutes, cCMP assay, serum actual sample, 1 µM inhibitor [2] | decrease of RNase A activity after approximately 27 minutes, cCMP assay, pig swab actual sample, 1 µM inhibitor [3] | decrease of RNase A activity after approximately 27 minutes, cCMP assay, saliva swab actual sample, 1 µM inhibitor [4] | Kd [5] | Kd [6] | Fv-antibody concentration at which the RNase inhibitory activity is over 50%, HeLa total RNA cleavage, agarose gel [1] | IC50, RNase activity analysis with the RNA probe [1] | IC50 for RNase A activity inhibition, HeLa total RNA cleavage, agarose gel image, dose-response curve fitting [1] | Kd [7] | IC50 (RNase A activity after treatment with Fv-3 beads, 1/10 diluted Pig Swab, RNase A 10 ng, RNA gel) [8] | IC50 (RNase A activity after treatment with Fv-3 beads, 1/10 diluted Saliva Swab, RNase A 10 ng, RNA gel) [8] | IC50 (RNase A activity after treatment with Fv-3 beads, 1/10 diluted Serum, RNase A 10 ng, RNA gel) [8] |
| --- | --- | --- | --- | --- | --- | --- | --- | --- | --- | --- | --- | --- | --- | --- | --- | --- | --- |
| CGPDSDVMTDF (Bought from Peptron, 90% purity; Peptide-1 is tied to the CDR3 of clone 5 / Fv-1 by the order of the names only; also called peptides-1) [Peptide-1, synthetic peptide with the CDR3 sequence of the screened clone] | 607 nM | 8100 nM | 995 nM | > 1 µM | 54.4% | ~53% | ~41% | ~30% | 1300 nM | 1350 nM |  |  |  |  |  |  |  |
| YGPVGRVKRDD (also called peptides-2) [Peptide-2, synthetic peptide with the CDR3 sequence of the screened clone] | 373 nM | 3600 nM | 658 nM | > 1 µM | 53.2% | ~55% | ~41% | ~44% | 1300 nM |  |  |  |  |  |  |  |  |
| DGTAKKSRKDD (also called peptides-3) [Peptide-3, synthetic peptide with the CDR3 sequence of the screened clone] | 356 nM | 400 nM | 464 nM | > 1 µM | 50.3% | ~60% | ~41% | ~35% | 3700 nM |  |  |  |  |  |  |  |  |
| Fv-1, expressed soluble Fv antibody of clone 5 (His-tag-TdTomato-VH) (other, Fusion protein made in E. coli from a recombinant plasmid (pJS001 to pJS003, not tied one by one); molecular weight estimated 69.2 kDa; No light chain; also called expressed Fv antibody; TdTomato-labeled Fv antibody; not shown: His-tag; TdTomato fluorescent protein) EVQLVESAAEVRRPGASVKITCKASGYSFSTYGIQWMRQAPGQRPEWLGWIHAGTGGTKYSRKFQGRITITRDTSANTVYLDLNSLTSEDTAVYYCARCGPDSDVMTDFWGQGTTVTVSS | 194 nM |  |  |  |  | ~55% | ~61% | ~42% |  |  | ≥ 350 nM | 90.2 nM | 234 nM | 17.5 nM |  |  |  |
| Fv-2, expressed soluble Fv antibody of clone 23 (His-tag-TdTomato-VH) (other, Fusion protein made in E. coli; 69.2 kDa; No light chain; not shown: His-tag; TdTomato fluorescent protein) EVQLVESAAEVRRPGASVKITCKASGYSFSTYGIQWMRQAPGQRPEWLGWIHAGTGGTKYSRKFQGRITITRDTSANTVYLDLNSLTSEDTAVYYCARYGPVGRVKRDDWGQGTTVTVSS | 236 nM |  |  |  |  | ~55% | ~49% | ~63% |  |  | ≥ 350 nM | 65.3 nM | 366 nM | 28.8 nM |  |  |  |
| Fv-3, expressed soluble Fv antibody of clone 39 (His-tag-TdTomato-VH) (other, Fusion protein made in E. coli; 69.2 kDa; No light chain; not shown: His-tag; TdTomato fluorescent protein) EVQLVESAAEVRRPGASVKITCKASGYSFSTYGIQWMRQAPGQRPEWLGWIHAGTGGTKYSRKFQGRITITRDTSANTVYLDLNSLTSEDTAVYYCARDGTAKKSRKDDWGQGTTVTVSS | 196 nM |  |  |  |  | ~52% | ~55% | ~60% |  |  | ≥ 350 nM | 98.8 nM | 436 nM | 33.9 nM | 632 nM | 838 nM | 1010 nM |
